Experiment [1] concerns NFκB target genes. As to the kind of experiment: Expression of NFκB target genes in PC-3 cells (RNA-seq, RT-qPCR). The settings on record: PC-3 cells, IKK-16 5 μM or ACHP 20 μM, 24 hours. It is filed as cell-based, human. How it is done:
FIGS. 4A-G. RB globally regulates NFkB transcriptional program in cells. […] (F, G) PC-3 cell were treated with or without palbociclib (5 μM) for 24 hours or PC-3 cells were infected with lentivirus expressing control shRNA or RB-specific shRNA following puromycin selection after 48 hours infection. Cells were harvested for RT-qPCR (F) and ChIP-qPCR (G) analysis of p65 binding at the promotor of PD-L1, GADD45B, NR4A2, and CD83. All data were shown as mean values±SD (n=3). * P<0.05, ** P<0.01, ***P<0.001.
FIGS. 16A-K. Mutual exclusivity of PTEN and MAP3K7 gene deletion in human cancers and CDK4/6 inhibition-mediated blockage of MAP3K7 deficiency-induced death of PTEN-null cells. (A) Genetic alterations of MAP3K7 and PTEN genes in the TCGA prostate cancer dataset. (B) Genetic alterations of MAP3K7 and PTEN genes in lymphoid neoplasm diffuse large B-cell lymphoma, stomach adenocarcinoma, pancreatic cancer, liver cancer, bladder urothelial carcinoma, and lung adenocarcinoma. (C-E) PC-3 cells were infected with lentivirus expressing control or MAP3K7-specific shRNAs. 72 hours after infection, cells were harvested for western blotting (C), cell growth assay (D), and colony formation assay (E). All data were shown as mean values±SD (n=3). ns, not significant, * P<0.05 comparing to the shControl group. (F-H) LNCaP-RF prostate cancer cells were infected with lentivirus expressing control or MAP3K7-specific shRNAs. 72 hours after infection, cells were harvested for western blotting (F), cell growth assay (G), and colony formation assay (H). All data are shown as mean values±SD (n=3). ns, not significant, * P<0.05 comparing to the shControl group. (I-K) PC-3 cells were infected with lentivirus expressing control, MAP3K7 or CHD1-specific shRNAs. 72 hours after infection, cells were treated with DMSO or palbociclib (5 μM). […]
FIGS. 17A-I. Negative regulation of MAP3K7-IKK-NFκB and CHD1-NFκB signaling by RB. […] 72 hours after infection and puromycin selection, cells were injected s.c. into the right flank of NSG mice, and tumor growth was measured for 21 days. […]
For orientation: Real-time PCR tracks product formation cycle by cycle.

Experiment [2] deals with T1, p65 (Homo sapiens, UniProt Q04206).
T1 construct: endogenous in cells; host or cells: 293T
As to the kind of experiment: Co-IP of p65 by SFB-tagged RL peptide in 293T cells. In kind it is binding. As to conditions: 48 hours after transfection. How it is done: FIGS. 10A-G. (A) Schematic diagram depicting a set of RB-N recombinant protein constructs. Western blot analysis of p65 proteins in PC-3 cells whole cell lysate pulled down by GST or GST-RB-N recombinant proteins. Stars indicate expected molecular weight. (B) Western blot analysis of in vitro transcribed and translated p65 proteins pulled down by GST or GST-RB recombinant proteins. Stars indicate expected molecular weight. (C) Western blot analysis of WCL and co-IP samples in 293T cells 48 h after transfected with indicated constructs. (D) Schematic diagram depicting an evolutionally conserved R-linker region in the N-terminal of RB. FIG. 10D discloses SEQ ID NOS 265 and 271-274, respectively, in order of appearance. (E) Western blot analysis of WCL and co-IP samples in 293T cells 48 hours after transfected with indicated constructs. (F) PC-3 cells were transfected with indicated plasmids. Western blot analysis of HA-RB proteins in PC-3 whole cell lysate pulled down by GST or GST-p65 recombinant proteins. Stars indicate expected molecular weight. (G) Schematic diagram depicting fully positively charged RB-N allows otherwise negatively charged by S249/T252 phosphorylation to bind to negatively charged 166FSLMV170 motif (SEQ ID NO: 286) in EID1. FIG. 10G discloses SEQ ID NOS 265-266 and 275, respectively, in order of appearance. […]

The target in experiment [3] is T2, p65 NFκB protein (human, UniProt Q04206 1-551).
T2 construct: The same entry is used for endogenous p65 and for in vitro translated p65; which one stood in the assay is told under assay; also called endogenous p65; in vitro transcribed and translated p65 (pCMV4 p65)
As to the kind of experiment: in vitro protein binding assay with in vitro transcribed and translated p65 (FIG. 10A).

Experiment [4] deals with T3, retinoblastoma protein RB (endogenous) (human, UniProt P06400 2-928).
T3 construct: Endogenous protein of cell lysates, phosphorylation state as in the cells; also called RB1; endogenous RB
T3 sequence (looked up): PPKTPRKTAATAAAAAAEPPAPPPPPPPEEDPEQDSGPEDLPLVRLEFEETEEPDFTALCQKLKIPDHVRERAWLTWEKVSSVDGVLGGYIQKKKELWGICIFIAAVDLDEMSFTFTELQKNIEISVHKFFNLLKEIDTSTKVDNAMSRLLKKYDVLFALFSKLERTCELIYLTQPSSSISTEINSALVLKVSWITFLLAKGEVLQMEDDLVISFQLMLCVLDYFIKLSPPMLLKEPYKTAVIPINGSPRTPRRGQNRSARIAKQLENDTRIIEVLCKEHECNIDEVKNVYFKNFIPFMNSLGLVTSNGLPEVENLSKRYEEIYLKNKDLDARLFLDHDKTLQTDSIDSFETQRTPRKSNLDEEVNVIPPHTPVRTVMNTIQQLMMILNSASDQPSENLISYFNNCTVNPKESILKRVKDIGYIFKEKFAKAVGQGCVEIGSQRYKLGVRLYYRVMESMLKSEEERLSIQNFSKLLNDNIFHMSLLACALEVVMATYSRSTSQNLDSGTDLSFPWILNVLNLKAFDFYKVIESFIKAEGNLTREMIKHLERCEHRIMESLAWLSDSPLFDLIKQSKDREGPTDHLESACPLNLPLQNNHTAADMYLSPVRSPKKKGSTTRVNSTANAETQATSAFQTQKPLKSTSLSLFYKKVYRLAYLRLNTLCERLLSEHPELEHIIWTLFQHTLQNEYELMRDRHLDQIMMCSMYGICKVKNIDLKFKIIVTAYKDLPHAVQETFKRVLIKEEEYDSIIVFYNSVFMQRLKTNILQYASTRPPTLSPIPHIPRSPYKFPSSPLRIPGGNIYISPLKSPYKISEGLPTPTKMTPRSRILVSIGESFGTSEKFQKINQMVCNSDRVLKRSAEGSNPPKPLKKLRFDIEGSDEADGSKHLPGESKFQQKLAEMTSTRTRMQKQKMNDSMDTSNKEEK
Put plainly: co-IP of endogenous proteins in PC-3 cells, western blot (FIG. 2A).

The target of experiment [5] is T2, p65 NFκB protein. As to the kind of experiment: co-IP from 293T cells transfected with SFB-tagged constructs (FIG. 10C).

T2 sequence (Q04206 whole entry): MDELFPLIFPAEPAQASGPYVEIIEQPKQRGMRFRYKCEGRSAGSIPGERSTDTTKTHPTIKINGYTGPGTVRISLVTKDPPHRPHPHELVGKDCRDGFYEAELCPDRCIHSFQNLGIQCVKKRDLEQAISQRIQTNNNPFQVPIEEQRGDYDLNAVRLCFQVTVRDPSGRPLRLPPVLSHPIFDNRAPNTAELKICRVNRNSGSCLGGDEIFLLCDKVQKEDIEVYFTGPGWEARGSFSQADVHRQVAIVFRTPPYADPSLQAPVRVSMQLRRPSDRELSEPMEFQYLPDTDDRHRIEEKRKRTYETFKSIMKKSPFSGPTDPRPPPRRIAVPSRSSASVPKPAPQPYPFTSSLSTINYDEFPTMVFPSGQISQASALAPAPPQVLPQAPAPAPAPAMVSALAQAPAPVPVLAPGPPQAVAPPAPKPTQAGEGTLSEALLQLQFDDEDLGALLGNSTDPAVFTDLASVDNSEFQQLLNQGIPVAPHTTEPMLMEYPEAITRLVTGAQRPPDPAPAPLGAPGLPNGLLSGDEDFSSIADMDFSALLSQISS
T1 sequence (Q04206 whole entry): as above

Regarding `N#Cc1c(C2CCNCC2)cc(-c2c(O)cccc2OCC2CC2)nc1N` [ACHP], the “NFκB target gene expression” value in experiment [1] is “decreased”. The same measure, in the same setting: next, `O=C(c1ccc(Nc2nccc(-c3cc4ccccc4s3)n2)cc1)N1CCC(N2CCCC2)CC1` [IKK-16]: “decreased”. With “RL-S249A/T252A: unphosphorylable (phosphorylation-resistant) mutant of the RL peptide (NGAPRAPRRGQNRSARIAKQL; left off: small tags and cut ends) [reference compound]”, the “immunoprecipitation of p65 by SFB-tagged RL peptide” value in experiment [2] is given as “largely diminished”.

B1: GST-RB-NΔ1 (N-terminal portion of RB-N, amino acids 1-266) (other, not shown: a dimerising Fc or GST; small tags and cut ends)
chain: MPPKTPRKTAATAAAAAAEPPAPPPPPPPEEDPEQDSGPEDLPLVRLEFEETEEPDFTALCQKLKIPDHVRERAWLTWEKVSSVDGVLGGYIQKKKELWGICIFIAAVDLDEMSFTFTELQKNIEISVHKFFNLLKEIDTSTKVDNAMSRLLKKYDVLFALFSKLERTCELIYLTQPSSSISTEINSALVLKVSWITFLLAKGEVLQMEDDLVISFQLMLCVLDYFIKLSPPMLLKEPYKTAVIPINGSPRTPRRGQNRSARIAKQ
With B1, in experiment [3], the binding result is “binds”.

B2: p50 subunit of NFκB (other, human, UniProt P19838 1-433, looked up)
chain: MAEDDPYLGRPEQMFHLDPSLTHTIFNPEVFQPQMALPTDGPYLQILEQPKQRGFRFRYVCEGPSHGGLPGASSEKNKKSYPQVKICNYVGPAKVIVQLVTNGKNIHLHAHSLVGKHCEDGICTVTAGPKDMVVGFANLGILHVTKKKVFETLEARMTEACIRGYNPGLLVHPDLAYLQAEGGGDRQLGDREKELIRQAALQQTKEMDLSVVRLMFTAFLPDSTGSFTRRLEPVVSDAIYDSKAPNASNLKIVRMDRTAGCVTGGEEIYLLCDKVQKDDIQIRFYEEEENGGVWEGFGDFSPTDVHRQFAIVFKTPKYKDINITKPASVFVQLRRKSDLETSEPKPFLYYPEIKDKEEVQRKRQKLMPNFSDSFGGGSGAGAGGGGMFGSGGGGGGTGSTGPGYSFPHYGFPTYGGITFHPGTTKSNAGMKHG
Consider B2, for which the binding result in experiment [4] is reported as “no binding”.

B3: SFB-tagged RB-N (other, human, UniProt P06400 1-379, looked up, not shown: small tags and cut ends)
chain: MPPKTPRKTAATAAAAAAEPPAPPPPPPPEEDPEQDSGPEDLPLVRLEFEETEEPDFTALCQKLKIPDHVRERAWLTWEKVSSVDGVLGGYIQKKKELWGICIFIAAVDLDEMSFTFTELQKNIEISVHKFFNLLKEIDTSTKVDNAMSRLLKKYDVLFALFSKLERTCELIYLTQPSSSISTEINSALVLKVSWITFLLAKGEVLQMEDDLVISFQLMLCVLDYFIKLSPPMLLKEPYKTAVIPINGSPRTPRRGQNRSARIAKQLENDTRIIEVLCKEHECNIDEVKNVYFKNFIPFMNSLGLVTSNGLPEVENLSKRYEEIYLKNKDLDARLFLDHDKTLQTDSIDSFETQRTPRKSNLDEEVNVIPPHTPVRTVM
notes: Expressed in mammalian cells (293T, PANC-1, H1299, SK-Hep1)
With B3, the binding result in experiment [5] was “binds”.
